# Test results: patent US7087405 (dated 2006)
# T1: integrin alphavbeta3 (human, UniProt P06756)
# T1 chain 1: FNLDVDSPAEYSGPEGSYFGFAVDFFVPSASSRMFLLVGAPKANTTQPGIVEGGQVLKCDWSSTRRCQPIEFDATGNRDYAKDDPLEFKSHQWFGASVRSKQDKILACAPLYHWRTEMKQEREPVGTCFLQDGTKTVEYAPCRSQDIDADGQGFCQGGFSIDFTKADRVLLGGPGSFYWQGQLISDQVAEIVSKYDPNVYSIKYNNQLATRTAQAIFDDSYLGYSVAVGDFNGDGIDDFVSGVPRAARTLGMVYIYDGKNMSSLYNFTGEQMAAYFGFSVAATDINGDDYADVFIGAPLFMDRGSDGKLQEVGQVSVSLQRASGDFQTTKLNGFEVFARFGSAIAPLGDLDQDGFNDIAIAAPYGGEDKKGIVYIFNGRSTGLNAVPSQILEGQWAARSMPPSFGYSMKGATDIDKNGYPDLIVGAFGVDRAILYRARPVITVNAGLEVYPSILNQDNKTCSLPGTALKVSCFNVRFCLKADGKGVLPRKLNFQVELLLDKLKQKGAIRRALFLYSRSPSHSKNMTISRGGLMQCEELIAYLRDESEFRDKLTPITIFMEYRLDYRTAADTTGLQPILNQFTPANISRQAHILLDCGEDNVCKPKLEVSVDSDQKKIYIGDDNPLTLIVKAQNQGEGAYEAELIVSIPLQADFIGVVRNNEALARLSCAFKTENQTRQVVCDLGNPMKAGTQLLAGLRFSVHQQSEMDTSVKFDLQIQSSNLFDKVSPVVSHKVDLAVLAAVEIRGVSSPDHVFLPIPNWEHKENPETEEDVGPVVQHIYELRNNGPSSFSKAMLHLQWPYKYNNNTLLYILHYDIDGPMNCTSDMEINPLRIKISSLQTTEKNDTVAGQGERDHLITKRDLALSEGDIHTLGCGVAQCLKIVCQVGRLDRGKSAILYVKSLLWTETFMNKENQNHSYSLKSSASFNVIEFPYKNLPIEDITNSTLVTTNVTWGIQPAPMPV
# T1 chain 2: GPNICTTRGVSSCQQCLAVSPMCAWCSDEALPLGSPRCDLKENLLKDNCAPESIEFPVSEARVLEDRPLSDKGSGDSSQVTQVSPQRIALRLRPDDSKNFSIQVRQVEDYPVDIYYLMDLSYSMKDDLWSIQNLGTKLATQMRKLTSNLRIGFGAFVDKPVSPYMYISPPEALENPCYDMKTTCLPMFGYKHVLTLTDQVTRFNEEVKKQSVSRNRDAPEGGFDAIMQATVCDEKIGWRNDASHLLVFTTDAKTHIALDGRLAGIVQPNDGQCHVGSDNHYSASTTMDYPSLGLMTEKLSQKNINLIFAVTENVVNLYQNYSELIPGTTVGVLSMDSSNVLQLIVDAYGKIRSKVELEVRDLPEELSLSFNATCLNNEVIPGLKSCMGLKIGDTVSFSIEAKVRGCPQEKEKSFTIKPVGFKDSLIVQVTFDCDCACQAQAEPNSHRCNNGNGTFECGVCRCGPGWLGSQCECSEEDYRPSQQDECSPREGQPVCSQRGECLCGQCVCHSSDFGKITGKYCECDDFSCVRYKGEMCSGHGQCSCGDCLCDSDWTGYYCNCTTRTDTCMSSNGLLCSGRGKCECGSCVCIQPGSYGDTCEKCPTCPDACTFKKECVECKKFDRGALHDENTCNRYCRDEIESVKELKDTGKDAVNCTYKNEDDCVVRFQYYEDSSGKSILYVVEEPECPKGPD
# T2: integrin alphavbeta5 (human, UniProt P06756)
# T2 chain 1: T1 chain 1
# T2 chain 2: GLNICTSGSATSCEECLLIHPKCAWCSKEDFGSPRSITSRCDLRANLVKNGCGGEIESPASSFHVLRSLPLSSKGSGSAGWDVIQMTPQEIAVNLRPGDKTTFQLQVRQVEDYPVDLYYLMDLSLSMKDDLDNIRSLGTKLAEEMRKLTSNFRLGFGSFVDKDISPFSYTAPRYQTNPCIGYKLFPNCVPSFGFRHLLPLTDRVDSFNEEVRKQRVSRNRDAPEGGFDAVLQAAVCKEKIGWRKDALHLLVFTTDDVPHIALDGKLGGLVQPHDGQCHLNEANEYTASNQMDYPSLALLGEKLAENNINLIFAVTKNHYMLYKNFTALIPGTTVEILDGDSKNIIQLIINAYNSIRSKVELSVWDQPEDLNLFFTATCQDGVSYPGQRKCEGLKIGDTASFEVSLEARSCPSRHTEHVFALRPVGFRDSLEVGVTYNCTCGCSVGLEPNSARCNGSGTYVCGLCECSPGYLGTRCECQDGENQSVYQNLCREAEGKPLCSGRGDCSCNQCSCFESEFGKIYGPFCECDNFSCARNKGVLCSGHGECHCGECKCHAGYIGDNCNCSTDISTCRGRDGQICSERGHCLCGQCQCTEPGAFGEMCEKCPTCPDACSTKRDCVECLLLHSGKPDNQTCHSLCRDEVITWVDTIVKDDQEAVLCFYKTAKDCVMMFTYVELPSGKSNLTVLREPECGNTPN
# B1: murine B9 (antibody, V domains shown)
# VH: QVQLQQSGAELMKPGASVKISCKATGYTFSSYWIEWVKQRPGHGLEWIGEILPRSGNTNYNEKFKGKATFTAETSSNTAYMQLSSLTPEDSAVYYCSSRGVRGSMDYWGQGTSVTVSS
# VL: DIQMTQTTSSLSASLGDRVTITCRSSQDISNFLNWYQQKPDGTVKLLIYYTSTLHSGVPSRFSGSGSGTDYSLTISNLEQEDIATYFCQQGNTLPWTFGGGTNLEIKR
# B2: B9HL1G1 (antibody)
# chain 1: QVQLVQSGAEVKKPGASVKVSCKASGYTFSSYWIEWVKQAPGQGLEWIGEILPRSGNTNYNEKFKGKATFTADTSTSTAYMELSSLRSEDTAVYYCSSRGVRGSMDYWGQGTLVTVSS
# chain 2: DIQMTQSPSSLSASVGDRVTITCRSSQDISNFLNWYQQKPGKAPKLLIYYTSTLHSGVPSRFSGSGSGTDYTLTISSLQPEDFATYYCQQGNTASLDVRWRY
# B3: B9HL1G4 (antibody)
# chain 1: B2 chain 1
# chain 2: B2 chain 2
# B4: B9HL2G1 (antibody, V domains shown)
# VH: B2 chain 1
# VL: DIQMTQSPSSLSASVGDRVTITCRSSQDISNFLNWYQQKPGKAPKLLIYYTSTLHSGVPSRFSGSGSGTDYTFTISSLQPEDIATYYCQQGNTLPWTFGGGT
# B5: B9HH1G1/HL3K (antibody, V domains shown)
# VH: B2 chain 1
# VL: DIQMTQSPSSLSASVGDRVTITCRSSQDISNFLNWYQQKPGKAPKLLIYYTSTLHSGVPSRFSGSGSGTDYTLTISSLQPEDFATYYCQQGNTLPWTFGGGTNVE
# Assays:
# [1] = molecular target: T1, integrin alphavbeta3; assay: SPR, receptor immobilized, bivalent
# [2] = molecular target: T2, integrin alphavbeta5; assay: SPR, receptor immobilized, bivalent
# [3] = molecular target: T1, integrin alphavbeta3; assay: SPR, mAb captured on Protein A
Binder,Kd [1] [nM],Kd [2] [nM],Kd [3] [nM]
B1,0.29,0.11,–
B2,–,–,8.2
B3,–,–,5.4
B4,–,–,7.1
B5,–,–,6.9
